Assay results published in US6730486 (INSTITUT NATIONAL DE LA SANTE ET DE LA RECHERCHE MEDICALE, dated 2004).

T1: βCat (whole normal β-catenin protein) (UniProt P35222 1-781)
T1 construct: Two-hybrid hybrid; also called whole β-catenin protein
T1 sequence (looked up): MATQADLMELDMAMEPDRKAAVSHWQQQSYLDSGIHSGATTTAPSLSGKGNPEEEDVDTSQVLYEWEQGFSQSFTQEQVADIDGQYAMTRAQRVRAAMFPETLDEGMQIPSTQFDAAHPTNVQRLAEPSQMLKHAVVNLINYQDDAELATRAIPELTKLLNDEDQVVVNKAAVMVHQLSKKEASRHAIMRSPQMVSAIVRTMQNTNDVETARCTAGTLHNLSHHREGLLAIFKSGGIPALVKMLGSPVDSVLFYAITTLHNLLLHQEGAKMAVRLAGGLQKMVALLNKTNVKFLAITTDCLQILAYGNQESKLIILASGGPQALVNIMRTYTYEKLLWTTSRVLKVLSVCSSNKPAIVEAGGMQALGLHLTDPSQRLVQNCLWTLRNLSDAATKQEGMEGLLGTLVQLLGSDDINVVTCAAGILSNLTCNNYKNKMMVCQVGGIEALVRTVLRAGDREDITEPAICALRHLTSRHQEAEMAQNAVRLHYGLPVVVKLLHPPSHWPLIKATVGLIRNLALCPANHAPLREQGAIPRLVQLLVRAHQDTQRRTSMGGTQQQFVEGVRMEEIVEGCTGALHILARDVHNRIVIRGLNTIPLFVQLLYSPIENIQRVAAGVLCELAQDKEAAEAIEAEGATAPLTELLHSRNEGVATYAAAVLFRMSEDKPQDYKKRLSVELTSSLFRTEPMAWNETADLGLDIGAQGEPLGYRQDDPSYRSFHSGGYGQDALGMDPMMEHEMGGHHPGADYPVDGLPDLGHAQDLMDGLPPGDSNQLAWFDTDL

T2: KIAA 0696 (βTrCP2), human βTrCP protein isolated by ISHIKAWA et al. (human, UniProt Q9UKB1 1-542, limits assumed)
T2 construct: Two-hybrid hybrid; also called βTCP2; KIA 696
T2 sequence (looked up): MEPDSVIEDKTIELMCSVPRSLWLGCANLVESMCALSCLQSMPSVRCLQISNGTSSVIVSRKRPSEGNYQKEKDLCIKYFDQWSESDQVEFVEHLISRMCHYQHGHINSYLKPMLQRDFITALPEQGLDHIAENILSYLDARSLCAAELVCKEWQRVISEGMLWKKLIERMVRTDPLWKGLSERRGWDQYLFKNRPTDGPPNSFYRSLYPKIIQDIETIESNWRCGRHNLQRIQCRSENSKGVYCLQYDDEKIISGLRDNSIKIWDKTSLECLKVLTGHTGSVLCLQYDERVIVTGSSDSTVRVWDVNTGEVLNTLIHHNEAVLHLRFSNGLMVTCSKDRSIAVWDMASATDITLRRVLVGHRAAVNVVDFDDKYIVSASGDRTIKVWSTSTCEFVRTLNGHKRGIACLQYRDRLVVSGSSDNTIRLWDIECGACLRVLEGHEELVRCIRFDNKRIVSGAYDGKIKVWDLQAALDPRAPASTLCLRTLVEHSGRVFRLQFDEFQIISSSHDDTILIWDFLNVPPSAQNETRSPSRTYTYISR

B1: cytoplasmic region of CD4 (CD4c) (receptor, UniProt P01730 419-458, looked up)
chain: CVRCRHRRRQAERMSQIKRLLSEKKTCQCPHRFQKTCSPI
notes: domain: cytoplasmic region; Two-hybrid fusion; also called CD4 cytoplasmic domain
B2: human βTrCP protein (h-βTrCP) (other)
chain: MDPAEAVLQEKALKFMNSSEREDCNNGEPPRKIIPEKNSLRQTYNSCARLCLNQETVCLASTAMKTENCVAKTKLANGTSSMIVPKQRKLSASYEKEKELCVKYFEQWSESDQVEFVEHLISQMCHYQHGHINSYLKPMLQRDFITALPARGLDHIAENILSYLDAKSLCAAELVCKEWYRVTSDGMLWKKLIERMVRTDSLWRGLAERRGWGQYLFKNKPPDGNAPPNSFYRALYPKIIQDIETIESNWRCGRHSLQRIHCRSETSKGVYCLQYDDQKIVSGLRDNTIKIWDKNTLECKRILTGHTGSVLCLQYDERVIITGSSDSTVRVWDVNTGEMLNTLIHHCEAVLHLRFNNGMMVTCSKDRSIAVWDMASPTDITLRRVLVGHRAAVNVVDFDDKYIVSASGDRTIKVWNTSTCEFVRTLNGHKRGIACLQYRDRLVVSGSSDNTIRLWDIECGACLRVLEGHEELVRCIRFDNKRIVSGAYDGKIKVWDLVAALDPRAPAGTLCLRTLVEHSGRVFRLQFDEFQIVSSSHDDTILIWDFLNDPAAQAEPPRSPSRTYTYISR
notes: 569 amino acids; also called whole h-βTrCP protein
B3: IκBα S32-36A (IκBα mutant at serines S32 and S36 so that there is no phosphorylation) (other, UniProt P25963 1-317, looked up)
chain: MFQAAERPQEWAMEGPRDGLKKERLLDDRHDAGLDAMKDEEYEQMVKELQEIRLEPQEVPRGSEPWKQQLTEDGDSFLHLAIIHEEKALTMEVIRQVKGDLAFLNFQNNLQQTPLHLAVITNQPEIAEALLGAGCDPELRDFRGNTPLHLACEQGCLASVGVLTQSCTTPHLHSILKATNYNGHTCLHLASIHGYLGIVELLVSLGADVNAQEPCNGRTALHLAVDLQNPDLVSLLLKCGADVNRVTYQGYSPYQLTWGRPSTRIQQQLGQLTLENLQMLPESEDEESYDTESEFTEFTEDELPYDDCVFGGQRLTL
notes: Two-hybrid hybrid; also called IκBα S32-36AA
B4: βCat1→130 S33-37AA (oncogenic β-catenin protein mutated on serine residues S33 and S37 so that there is no phosphorylation) (other, UniProt P35222 1-130, looked up)
chain: MATQADLMELDMAMEPDRKAAVSHWQQQSYLDAGIHAGATTTAPSLSGKGNPEEEDVDTSQVLYEWEQGFSQSFTQEQVADIDGQYAMTRAQRVRAAMFPETLDEGMQIPSTQFDAAHPTNVQRLAEPSQ
notes: range 1-130; also called mutated β-catenin

Key:
[1] = molecular target: endogenous IκBα protein of 293 or Hela cells, phosphorylated form (human) (UniProt P25963); assay: cell-based or functional assay
[2] = molecular target: B2; assay: yeast two-hybrid (His3 and LacZ reporters)
human Skp1p protein = human Skp1p protein (human, UniProt P63208 1-163); assay: yeast two-hybrid (strain L40)
Sequence of human Skp1p protein (P63208 whole entry): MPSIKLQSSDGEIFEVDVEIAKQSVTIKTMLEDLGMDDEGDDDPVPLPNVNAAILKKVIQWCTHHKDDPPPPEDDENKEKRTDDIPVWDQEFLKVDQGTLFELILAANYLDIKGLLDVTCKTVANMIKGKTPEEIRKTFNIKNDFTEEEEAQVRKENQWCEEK

[3] = molecular target: T1, βCat (whole normal β-catenin protein); assay: yeast two-hybrid, FIG. 10
[4] = molecular target: B2; assay: yeast two-hybrid
[5] = molecular target: T2, KIAA 0696 (βTrCP2), human βTrCP protein …; assay: yeast two-hybrid

“h-βTrCPΔF fragment (deleted residues: 32 to 179) (from UniProt Q9Y297 1-605)” gave a fold decrease in transcription activation induced by TNFα (NFκB-dependent luciferase reporter, FIG. 7) [1] of 20 fold.

B1: no binding [2]; no binding (human Skp1p protein).

B2: binds [3].

B3: no binding [4].

B4: no binding [5]; no binding [4].
